Measurements published in paper PMC9482650, “Quantitative fragmentomics allow affinity mapping of interactomes” (Nature Communications, 2022).

Tests used:
Test in all cases: holdup assay
Set-up in all cases: key: below the threshold = too weak to quantify, mostly under pKd 3.1 to 4
GRASP, Q7Z6J2 = target: GRASP, Q7Z6J2
LNX1_3, Q8TBB1 = target: LNX1_3, Q8TBB1
DLG1_1, Q12959 = target: DLG1_1, Q12959
TX1BP3, O14907 = target: T1, TX1BP3, O14907
T1 sequence (O14907 10-122, limits assumed, looked up): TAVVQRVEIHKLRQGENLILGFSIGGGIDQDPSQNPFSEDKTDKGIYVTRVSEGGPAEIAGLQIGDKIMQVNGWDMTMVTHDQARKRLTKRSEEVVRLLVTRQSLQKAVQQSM

PDZD7_3, Q9H5P4 = target: T2, PDZD7_3, Q9H5P4
T2 sequence (Q9H5P4 857-944, limits assumed, looked up): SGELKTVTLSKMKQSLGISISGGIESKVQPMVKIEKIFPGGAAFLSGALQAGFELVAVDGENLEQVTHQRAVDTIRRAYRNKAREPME

LIN7A, O14910 = target: T3, LIN7A, O14910
T3 sequence (O14910 103-200, limits assumed, looked up): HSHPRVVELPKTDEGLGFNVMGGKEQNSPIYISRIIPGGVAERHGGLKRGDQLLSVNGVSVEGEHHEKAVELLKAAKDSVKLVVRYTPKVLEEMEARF

PICK1, Q9NRD5 = target: PICK1, Q9NRD5
SNTG2, Q9NY99 = target: T4, SNTG2, Q9NY99
T4 sequence (Q9NY99 68-166, limits assumed, looked up): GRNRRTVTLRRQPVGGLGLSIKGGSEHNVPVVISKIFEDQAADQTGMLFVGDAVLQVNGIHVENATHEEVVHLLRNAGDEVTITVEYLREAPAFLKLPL

FRMPD4, Q14CM0 = target: FRMPD4, Q14CM0
ARHGAP21, Q5T5U3 = target: T5, ARHGAP21, Q5T5U3
T5 sequence (Q5T5U3 45-169, limits assumed, looked up): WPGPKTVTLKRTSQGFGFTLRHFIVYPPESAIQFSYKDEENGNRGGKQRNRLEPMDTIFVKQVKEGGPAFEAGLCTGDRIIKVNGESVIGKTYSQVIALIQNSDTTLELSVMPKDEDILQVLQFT

PARD3B_1, Q8TEW8 = target: T6, PARD3B_1, Q8TEW8
T6 sequence (Q8TEW8 196-299, limits assumed, looked up): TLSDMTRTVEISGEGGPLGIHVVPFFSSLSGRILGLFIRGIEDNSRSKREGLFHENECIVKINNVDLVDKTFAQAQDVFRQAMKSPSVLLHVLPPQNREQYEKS

GRIP2_5, Q9C0E4 = target: GRIP2_5, Q9C0E4
PCLO, Q9Y6V0 = target: T7, PCLO, Q9Y6V0
T7 sequence (Q9Y6V0 4491-4600, limits assumed, looked up): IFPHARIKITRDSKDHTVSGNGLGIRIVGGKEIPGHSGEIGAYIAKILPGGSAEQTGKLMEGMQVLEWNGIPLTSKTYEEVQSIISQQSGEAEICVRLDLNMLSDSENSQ

DLG1_2, Q12959 = target: DLG1_2, Q12959
MAST2, Q6P0Q8 = target: MAST2, Q6P0Q8
DLG1_3, Q12959 = target: DLG1_3, Q12959
GRIP2_3, Q9C0E4 = target: GRIP2_3, Q9C0E4
Inadl_5, Q8NI35 = target: Inadl_5, Q8NI35
LDB3, O75112 = target: LDB3, O75112
DLG2_2, Q15700 = target: DLG2_2, Q15700
IL16_3, Q14005 = target: IL16_3, Q14005
DLG3_3, Q92796 = target: T8, DLG3_3, Q92796
T8 sequence (Q92796 374-475, limits assumed, looked up): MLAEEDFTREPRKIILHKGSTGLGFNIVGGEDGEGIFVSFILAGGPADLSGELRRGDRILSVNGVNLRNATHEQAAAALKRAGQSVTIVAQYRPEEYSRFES

MAGI3_2, Q5TCQ9 = target: MAGI3_2, Q5TCQ9
Inadl_10, Q8NI35 = target: Inadl_10, Q8NI35
LIN7B, Q9HAP6 = target: T9, LIN7B, Q9HAP6
T9 sequence (Q9HAP6 88-185, limits assumed, looked up): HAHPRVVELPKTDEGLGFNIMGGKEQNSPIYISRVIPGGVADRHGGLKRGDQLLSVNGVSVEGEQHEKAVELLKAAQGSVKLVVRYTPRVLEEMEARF

TJP1_3, Q07157 = target: TJP1_3, Q07157
MPDZ_5, O75970 = target: T10, MPDZ_5, O75970
T10 sequence (O75970 695-796, limits assumed, looked up): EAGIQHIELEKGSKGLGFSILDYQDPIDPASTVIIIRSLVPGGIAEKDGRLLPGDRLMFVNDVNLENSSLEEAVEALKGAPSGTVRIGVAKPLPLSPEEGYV

GRIP2_7, Q9C0E4 = target: GRIP2_7, Q9C0E4
[1] = plain residues with an end cap or a label only (N-terminal biotin on a linker: none)
[2] = plain residues with an end cap or a label only (N-terminal biotin on a linker: ttds)
[3] = plain residues with an end cap or a label only (N-terminal biotin on a linker: ahx)

Sequence of LNX1_3, Q8TBB1 (Q8TBB1 500-596): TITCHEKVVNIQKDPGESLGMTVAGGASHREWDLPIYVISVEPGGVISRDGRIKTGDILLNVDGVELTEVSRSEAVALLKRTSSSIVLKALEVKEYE
Sequence of TJP1_3, Q07157 (Q07157 416-512): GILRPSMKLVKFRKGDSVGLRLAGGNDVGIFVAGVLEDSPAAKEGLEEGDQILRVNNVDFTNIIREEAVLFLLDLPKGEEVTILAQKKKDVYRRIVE
Sequence of IL16_3, Q14005 (Q14005 1107-1207): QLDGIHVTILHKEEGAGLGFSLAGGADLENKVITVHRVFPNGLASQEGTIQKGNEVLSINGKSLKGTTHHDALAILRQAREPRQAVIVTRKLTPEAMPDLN
Sequence of LDB3, O75112 (O75112 1-94): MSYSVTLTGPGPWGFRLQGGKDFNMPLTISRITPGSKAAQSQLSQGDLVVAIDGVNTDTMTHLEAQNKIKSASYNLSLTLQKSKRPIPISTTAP
Sequence of PICK1, Q9NRD5 (Q9NRD5 17-115): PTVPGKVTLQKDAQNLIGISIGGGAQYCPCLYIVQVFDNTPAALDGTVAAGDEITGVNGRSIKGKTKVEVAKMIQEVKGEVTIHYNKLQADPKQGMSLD
Sequence of MAGI3_2, Q5TCQ9 (Q5TCQ9 398-503): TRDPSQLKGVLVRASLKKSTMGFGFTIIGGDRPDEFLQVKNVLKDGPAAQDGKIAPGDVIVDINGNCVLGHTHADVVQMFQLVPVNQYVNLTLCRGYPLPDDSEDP
Sequence of MAST2, Q6P0Q8 (Q6P0Q8 1099-1202): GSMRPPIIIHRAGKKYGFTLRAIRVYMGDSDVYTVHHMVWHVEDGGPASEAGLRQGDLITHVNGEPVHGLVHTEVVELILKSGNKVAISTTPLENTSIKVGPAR
Sequence of FRMPD4, Q14CM0 (Q14CM0 67-160): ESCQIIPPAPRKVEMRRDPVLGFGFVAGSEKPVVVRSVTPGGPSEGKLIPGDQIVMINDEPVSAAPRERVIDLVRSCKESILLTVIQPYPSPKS
Sequence of GRIP2_5, Q9C0E4 (Q9C0E4 544-642): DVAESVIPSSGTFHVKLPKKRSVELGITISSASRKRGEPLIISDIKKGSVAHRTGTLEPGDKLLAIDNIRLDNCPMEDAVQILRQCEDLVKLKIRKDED
Sequence of GRASP, Q7Z6J2 (Q7Z6J2 96-193): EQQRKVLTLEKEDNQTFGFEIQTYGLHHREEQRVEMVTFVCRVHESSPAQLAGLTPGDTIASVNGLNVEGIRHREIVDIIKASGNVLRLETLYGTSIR
Sequence of GRIP2_3, Q9C0E4 (Q9C0E4 238-339): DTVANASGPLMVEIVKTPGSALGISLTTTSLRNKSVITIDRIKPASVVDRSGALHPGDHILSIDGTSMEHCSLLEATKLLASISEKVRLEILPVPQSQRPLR
Sequence of GRIP2_7, Q9C0E4 (Q9C0E4 934-1023): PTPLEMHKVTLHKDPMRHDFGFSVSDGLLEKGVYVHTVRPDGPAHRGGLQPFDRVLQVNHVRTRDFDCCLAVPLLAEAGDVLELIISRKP
Sequence of DLG2_2, Q15700 (Q15700 189-283): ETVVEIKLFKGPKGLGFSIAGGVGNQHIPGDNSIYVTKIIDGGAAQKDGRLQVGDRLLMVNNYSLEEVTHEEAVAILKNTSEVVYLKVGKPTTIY
Sequence of Inadl_5, Q8NI35 (Q8NI35 673-780): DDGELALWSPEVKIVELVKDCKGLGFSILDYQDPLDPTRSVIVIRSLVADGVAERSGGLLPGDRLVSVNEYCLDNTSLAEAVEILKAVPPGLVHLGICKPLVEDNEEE
Sequence of Inadl_10, Q8NI35 (Q8NI35 1673-1763): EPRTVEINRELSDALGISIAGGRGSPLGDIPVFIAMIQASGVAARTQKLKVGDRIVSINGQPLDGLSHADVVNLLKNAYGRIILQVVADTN

NLNSSRVPDLLV [SARS-CoV2-E, P0DTC4]
pKd (GRASP, Q7Z6J2; [1]): below the threshold
pKd (LNX1_3, Q8TBB1; [1]): below the threshold
pKd (DLG1_1, Q12959; [1]): below the threshold
pKd (TX1BP3, O14907; [1]): below the threshold
pKd (PDZD7_3, Q9H5P4; [1]): below the threshold
pKd (LIN7A, O14910; [1]): below the threshold
pKd (PICK1, Q9NRD5; [1]): 3.67
pKd (SNTG2, Q9NY99; [1]): below the threshold
pKd (FRMPD4, Q14CM0; [1]): 3.48
pKd (ARHGAP21, Q5T5U3; [1]): below the threshold
pKd (PARD3B_1, Q8TEW8; [1]): below the threshold
pKd (GRIP2_5, Q9C0E4; [1]): below the threshold
pKd (PCLO, Q9Y6V0; [1]): below the threshold
pKd (DLG1_2, Q12959; [1]): below the threshold
pKd (MAST2, Q6P0Q8; [1]): below the threshold
pKd (DLG1_3, Q12959; [1]): below the threshold
pKd (GRIP2_3, Q9C0E4; [1]): below the threshold
pKd (Inadl_5, Q8NI35; [1]): below the threshold
pKd (LDB3, O75112; [1]): below the threshold
pKd (DLG2_2, Q15700; [1]): below the threshold
pKd (IL16_3, Q14005; [1]): below the threshold
pKd (DLG3_3, Q92796; [1]): below the threshold
pKd (MAGI3_2, Q5TCQ9; [1]): below the threshold
pKd (Inadl_10, Q8NI35; [1]): below the threshold
pKd (LIN7B, Q9HAP6; [1]): below the threshold
pKd (TJP1_3, Q07157; [1]): below the threshold
pKd (MPDZ_5, O75970; [1]): below the threshold
pKd (GRIP2_7, Q9C0E4; [1]): below the threshold

SGSRPSATVV [HPV73-E6, Q82005]
pKd (GRASP, Q7Z6J2; [2]): 3.8
pKd (LNX1_3, Q8TBB1; [2]): below the threshold
pKd (DLG1_1, Q12959; [2]): 3.89
pKd (TX1BP3, O14907; [2]): below the threshold
pKd (PDZD7_3, Q9H5P4; [2]): 4.7
pKd (LIN7A, O14910; [2]): below the threshold
pKd (PICK1, Q9NRD5; [2]): 3.63
pKd (SNTG2, Q9NY99; [2]): below the threshold
pKd (FRMPD4, Q14CM0; [2]): below the threshold
pKd (ARHGAP21, Q5T5U3; [2]): below the threshold
pKd (PARD3B_1, Q8TEW8; [2]): below the threshold
pKd (GRIP2_5, Q9C0E4; [2]): below the threshold
pKd (PCLO, Q9Y6V0; [2]): below the threshold
pKd (DLG1_2, Q12959; [2]): 4.3
pKd (MAST2, Q6P0Q8; [2]): 3.88
pKd (DLG1_3, Q12959; [2]): below the threshold
pKd (GRIP2_3, Q9C0E4; [2]): below the threshold
pKd (Inadl_5, Q8NI35; [2]): below the threshold
pKd (LDB3, O75112; [2]): below the threshold
pKd (DLG2_2, Q15700; [2]): 4.03
pKd (IL16_3, Q14005; [2]): below the threshold
pKd (DLG3_3, Q92796; [2]): below the threshold
pKd (MAGI3_2, Q5TCQ9; [2]): 4.91
pKd (Inadl_10, Q8NI35; [2]): below the threshold
pKd (LIN7B, Q9HAP6; [2]): below the threshold
pKd (TJP1_3, Q07157; [2]): below the threshold
pKd (MPDZ_5, O75970; [2]): 3.53
pKd (GRIP2_7, Q9C0E4; [2]): 3.56

PVRVCEETSL [OTULIN, Q96BN8]
pKd (GRASP, Q7Z6J2; [2]): 4.71
pKd (LNX1_3, Q8TBB1; [2]): below the threshold
pKd (DLG1_1, Q12959; [2]): 4.35
pKd (TX1BP3, O14907; [2]): 4.37
pKd (PDZD7_3, Q9H5P4; [2]): 4.41
pKd (LIN7A, O14910; [2]): 3.47
pKd (PICK1, Q9NRD5; [2]): below the threshold
pKd (SNTG2, Q9NY99; [2]): 4.63
pKd (FRMPD4, Q14CM0; [2]): 4.59
pKd (ARHGAP21, Q5T5U3; [2]): 4.2
pKd (PARD3B_1, Q8TEW8; [2]): 4.09
pKd (GRIP2_5, Q9C0E4; [2]): below the threshold
pKd (PCLO, Q9Y6V0; [2]): below the threshold
pKd (DLG1_2, Q12959; [2]): 4.56
pKd (MAST2, Q6P0Q8; [2]): 5.28
pKd (DLG1_3, Q12959; [2]): 4.14
pKd (GRIP2_3, Q9C0E4; [2]): 3.57
pKd (Inadl_5, Q8NI35; [2]): 3.54
pKd (LDB3, O75112; [2]): below the threshold
pKd (DLG2_2, Q15700; [2]): 3.87
pKd (IL16_3, Q14005; [2]): below the threshold
pKd (DLG3_3, Q92796; [2]): 4.02
pKd (MAGI3_2, Q5TCQ9; [2]): 3.71
pKd (Inadl_10, Q8NI35; [2]): 3.55
pKd (LIN7B, Q9HAP6; [2]): 3.85
pKd (TJP1_3, Q07157; [2]): below the threshold
pKd (MPDZ_5, O75970; [2]): below the threshold
pKd (GRIP2_7, Q9C0E4; [2]): 3.66

TVICWPGSLV [LNX2, Q8N448]
pKd (GRASP, Q7Z6J2; [3]): 4.59
pKd (LNX1_3, Q8TBB1; [3]): 3.57
pKd (DLG1_1, Q12959; [3]): 4.21
pKd (TX1BP3, O14907; [3]): 4.59
pKd (PDZD7_3, Q9H5P4; [3]): 4.5
pKd (LIN7A, O14910; [3]): 4.35
pKd (PICK1, Q9NRD5; [3]): 3.75
pKd (SNTG2, Q9NY99; [3]): 3.73
pKd (FRMPD4, Q14CM0; [3]): below the threshold
pKd (ARHGAP21, Q5T5U3; [3]): below the threshold
pKd (PARD3B_1, Q8TEW8; [3]): 3.99
pKd (GRIP2_5, Q9C0E4; [3]): below the threshold
pKd (PCLO, Q9Y6V0; [3]): below the threshold
pKd (DLG1_2, Q12959; [3]): 4.27
pKd (MAST2, Q6P0Q8; [3]): 4.1
pKd (DLG1_3, Q12959; [3]): 4.32
pKd (GRIP2_3, Q9C0E4; [3]): below the threshold
pKd (Inadl_5, Q8NI35; [3]): 3.51
pKd (LDB3, O75112; [3]): below the threshold
pKd (DLG2_2, Q15700; [3]): 3.9
pKd (IL16_3, Q14005; [3]): below the threshold
pKd (DLG3_3, Q92796; [3]): 3.95
pKd (MAGI3_2, Q5TCQ9; [3]): 4.58
pKd (Inadl_10, Q8NI35; [3]): 4.03
pKd (LIN7B, Q9HAP6; [3]): 4.46
pKd (TJP1_3, Q07157; [3]): below the threshold
pKd (MPDZ_5, O75970; [3]): 4.03
pKd (GRIP2_7, Q9C0E4; [3]): below the threshold

VDFPPKESSL [ACVR2A, P27037]
pKd (GRASP, Q7Z6J2; [2]): 3.47
pKd (LNX1_3, Q8TBB1; [2]): below the threshold
pKd (DLG1_1, Q12959; [2]): 3.71
pKd (TX1BP3, O14907; [2]): 4.13
pKd (PDZD7_3, Q9H5P4; [2]): 3.61
pKd (LIN7A, O14910; [2]): 3.24
pKd (PICK1, Q9NRD5; [2]): below the threshold
pKd (SNTG2, Q9NY99; [2]): 4.11
pKd (FRMPD4, Q14CM0; [2]): below the threshold
pKd (ARHGAP21, Q5T5U3; [2]): below the threshold
pKd (PARD3B_1, Q8TEW8; [2]): below the threshold
pKd (GRIP2_5, Q9C0E4; [2]): below the threshold
pKd (PCLO, Q9Y6V0; [2]): below the threshold
pKd (DLG1_2, Q12959; [2]): 4.24
pKd (MAST2, Q6P0Q8; [2]): 5.05
pKd (DLG1_3, Q12959; [2]): 4.11
pKd (GRIP2_3, Q9C0E4; [2]): below the threshold
pKd (Inadl_5, Q8NI35; [2]): below the threshold
pKd (LDB3, O75112; [2]): below the threshold
pKd (DLG2_2, Q15700; [2]): 3.84
pKd (IL16_3, Q14005; [2]): below the threshold
pKd (DLG3_3, Q92796; [2]): below the threshold
pKd (MAGI3_2, Q5TCQ9; [2]): 3.3
pKd (Inadl_10, Q8NI35; [2]): below the threshold
pKd (LIN7B, Q9HAP6; [2]): 3.54
pKd (TJP1_3, Q07157; [2]): below the threshold
pKd (MPDZ_5, O75970; [2]): below the threshold
pKd (GRIP2_7, Q9C0E4; [2]): below the threshold
